Test [1] deals with GLP-1 receptor.
The target of test [2] is GLP-1 receptor. This is another data set of the same source.

For the substance EX (peptide), in test [1], the EC50 (cAMP assay) was found to be 0.55 nM. For the same substance, in test [2], the IC50 was found to be 0.1 nM.

The values above are taken from patent publication US20100016547A1, “Glycosilated Peptide and Medicine Comprising It as an Effective Ingredient” (priority 2005, published 2010).
